From patent US20210371506A1

Experiments:
Aβ1-42 monomer (human) = test: SPR, Biacore T200; IgG captured on Protein A chip, Aβ1-42 monomer flowed over
Aβ1-42 fibrils (human) = test: SPR, Biacore T200; Aβ1-42 fibrils amine-coupled to CM5 chip, antibody flowed over
Chain of Aβ1-42 fibrils (human) (peptide, as listed by the source): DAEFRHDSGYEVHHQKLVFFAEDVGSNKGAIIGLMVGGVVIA

Chain of Aβ1-42 monomer (human) (peptide, as listed by the source): as above

- Kd (Aβ1-42 monomer (human)): 3200 nM
- Kd (Aβ1-42 fibrils (human)): 75.2 nM
Substance: Aducanumab (antibody)
